Measurements as given in paper PMC4650713, “Crystal structure of Bax bound to the BH3 peptide of Bim identifies important contacts for interaction” (Cell Death & Disease, 2015).
One block for each substance: values may come before it.

What was measured:
[1] = target: BaxΔC21 (UniProt Q07812); assay: SPR; competition in solution: BaxΔC21 at 25 nM incubated with increasing concentrations of BH3 peptide in 10 mM HEPES, 150 mM NaCl, 3.4 mM EDTA, 0.005% Tween-20, pH 7.4 with 0.5% octylglucoside, injected onto a CM5 chip with immobilised BimBH3; Bim4E channel subtracted; IC50
[2] = target: BaxΔC21 (UniProt Q07812)

BaxΔC21, sequence (Q07812 1-171 C62S/C126S): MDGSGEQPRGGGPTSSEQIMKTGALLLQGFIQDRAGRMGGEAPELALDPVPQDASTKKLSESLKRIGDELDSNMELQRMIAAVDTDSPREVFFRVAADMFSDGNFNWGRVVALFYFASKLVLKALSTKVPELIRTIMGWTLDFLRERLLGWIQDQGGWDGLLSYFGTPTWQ

- IC50 [1]: 2.4 µM
- fold weaker binding than BimBH3 [1]: 40 fold
- core/latch dimer formation of BaxΔC21 triggered by the peptide with CHAPS (gel filtration) [2]: > 50%
Substance: BimBH3 E145K (peptide)

- fold loss of affinity against BimBH3 [1]: 3 fold
Substance: BimBH3 P144A/E145A (peptide)

- fold tighter binding than BidBH3 [1]: 5 fold
Substance: BimBH3 peptide
